One assay relates to H226. Description: rTRAIL response, viability assay, H226. The class given is cell-based, Human. Conditions: BAP1 Deletion, Homozygous. The procedure:
(§1) Manual “single dose” combination screening was undertaken using 96 well formats. Cells were plated on day 1 in previously optimized seeding densities in 180 μl if media. On day 2 20 μl of a 10× concentration of […] was added. Cells were then allowed to grow for 72 hrs or 6 days and fixed at the end of the assay. Drug wells were compared to DMSO treated control wells.
(§2) Single agent high throughput 5 point viability screening was undertaken in 384 well formats using robotic liquid handling with fixing with 4% paraformaldehyde and staining for viability with Syto60 nucleic acid dye (Invitrogen) (see below). Single agent dose response curves were derived for each library of 85-95 drugs according to the experiment used, and log IC50 or area under the curve (AUC) metrics were derived for each library compound in each cell line according to a previously derived formula [18].
(§3) Adherent cell lines were seeded 24 hours before drugging. Cells were trypsinised and counted before seeding at the optimal density for the size of well (96 or 384) and duration of assay. 72 hr after drug treatment cells were fixed with 4% paraformaldehyde for 30 minutes. […] Quantification of fluorescent signal was achieved using excitation/emission wavelength of 630/695 […].

The test system of a further assay is H2731. The experiment in a line: rTRAIL response, viability assay, H2731. The class given is cell-based, Human. Conditions: BAP1 Essential Splice, heterozygous. How it is done:
as §1, §2, §3

A further assay relates to H2804. The experiment in a line: rTRAIL response, viability assay, H2804. The settings on record: BAP1 Essential Splice, heterozygous. In kind it is cell-based, Human. How it is done: as §1, §2, §3
The test system of a further assay is NCI-H226. The experiment in a line: rTRAIL response, viability assay, NCI-H226. In kind it is cell-based, Human. The settings on record: BAP1 HomDel, homozygous. How it is done: as §1, §2, §3
A further assay concerns H2369. Description: rTRAIL response, viability assay, H2369. The class given is cell-based, Human. The settings on record: BAP1 Wild-type. How it is done: as §1, §2, §3
The test system of the next assay is H2591. Description: rTRAIL response, viability assay, H2591. The settings on record: BAP1 Wild-type. In kind it is cell-based, Human. The procedure:
as §1, §2, §3

The next assay deals with H2810. The experiment in a line: rTRAIL response, viability assay, H2810. The class given is cell-based, Human. Conditions: BAP1 Wild-type. How it is done: as §1, §2, §3
The next assay concerns H2818. Description: rTRAIL response, viability assay, H2818. The class given is cell-based, Human. Conditions: BAP1 Wild-type. How it is done:
as §1, §2, §3

For a further assay, the system named is H2869. Description: rTRAIL response, viability assay, H2869. The class given is cell-based, Human. The settings on record: BAP1 Wild-type. How it is done:
as §1, §2, §3

The subject of assay [1] is control normal mesothelial cell line MET-5A. Description: 6-day viability assay, normal mesothelial control line. The class given is cell-based. Conditions: rTRAIL 40 ng/ml. How it is done:
(§4) FIG. 2A is a volcano plot showing drug-genome interactions in MPM. […] The Y-axis denotes adjusted p-Value, X-axis denotes effect size. Size of circle indicates number of mutant lines in cohort tested. […] Met 5a is a mesothelial normal control line. FIG. 2C is a scatter plot showing AUC following 6 day viability assay in response to 40 ng/ml rTRAIL (normalised to DMSO treated control) in cell lines discretized by BAP1 mutation status. […] Two-tailed t-test, p=0.015.
as §1
Adherent cell lines were seeded 24 hours before drugging. Cells were trypsinised and counted before seeding at the optimal density for the size of well (96 or 384) and duration of assay. 72 hr after drug treatment cells were fixed with 4% paraformaldehyde for 30 minutes. Following two washes of dH2O 100 μl Syto60 nucleic acid stain (Invitrogen) was added at a final concentration of 1 μM and plates […] for 1 hr at room temperature. Quantification of fluorescent signal was achieved using excitation/emission wavelength of 630/695 […].

A further assay relates to mesothelioma cell lines. The experiment in a line: Chemical screen, viability of mesothelioma cell lines by BAP1 mutation status. In kind it is cell-based, Human. The settings on record: 6 day viability assay, 40 ng/ml rTRAIL. The procedure: as §4
Manual “single dose” combination screening was undertaken using 96 well formats. Cells were plated on day 1 in previously optimized seeding densities in 180 μl if media. On day 2 20 μl of a 10× concentration of media from a stock of drugs was added. […]
A binary event matrix was compiled for the cell lines in the mesothelioma screen by aggregating copy number and exome data and this was used as input classifiers for genomic correlation. Data from this therapeutic screen was then analysed using a Multivariate Analysis of Variance (MANOVA) to annotate the sensitizing effect of genotype on dose response.
Adherent cell lines were seeded 24 hours before drugging. Cells were trypsinised and counted before seeding at the optimal density for the size of well (96 or 384) and duration of assay. […] Quantification of fluorescent signal was achieved using excitation/emission wavelength of 630/695 […].

For a further assay, the system named is RT4. Description: rTRAIL viability, bladder cancer cell line RT4. The class given is cell-based. Conditions: nonsense mutation in BAP1. An excerpt:
(§5) FIG. 8A is a graph showing the effect of rTRAIL on the viability of various cancer cell lines. Bladder (RT4) and Breast (HCC1187) cancer cell lines with nonsense mutations in BAP1 show sensitivity to rTRAIL while renal cell cancer cell lines (769P & RCC10RGB) with missense mutation and wild-type renal (BB65RCC) and bladder cancer (SW1710) cell lines are resistant to TRAIL.

In a further assay the test system is RCC10RGB. Description: rTRAIL viability, renal cell cancer cell line RCC10RGB. In kind it is cell-based. The settings on record: BAP1 missense mutation.
Description: as §5

A further assay has as its system SW1710. Description: rTRAIL viability, bladder cancer cell line SW1710. In kind it is cell-based. Conditions: BAP1 wild-type.
Description: as §5

In the next assay the test system is MDA MB-231. Description: rTRAIL response after BAP1 knockdown in MDA MB-231. The class given is cell-based. Conditions: MDA MB-231 breast cancer cell line, BAP1 shRNA.
Description: as §5
The deubiquitinase BAP1 is frequently mutated in pleural mesothelioma (36%), uveal melanoma (47%) and intrahepatic cholangiocarcinomas (25%) as previously noted. To determine whether additional BAP1 mutant tumours occur that may also be amenable to this therapeutic approach, the inventors extended this analysis to a cohort of 5180 tumour samples in 20 cancer types using variant data from The Cancer Genome Atlas (TCGA). Truncating BAP1 mutations were also observed in a diverse range of cancer types, with frequencies of up to 6% (see FIGS. 1b, and c) Carbone, M. et al, Nature Reviews Cancer 13, 153-159 (March 2013). When the inventors extended their analysis to a panel of 1001 cancer cell lines that had previously been submitted for whole exome and copy number analysis, they identified 17 cell lines harbouring truncating mutations in BAP1. These included clear cell kidney cancer, bladder cancer and breast cancer cell lines. […]

For assay [2], the system named is mutated BAP1 xenografts (H226 C91A). Description: Xenograft mouse model, H226 BAP1 and H226 C91A tumours. The class given is in vivo, mice. The source says: FIG. 9A is a protocol of an in vivo experiment. FIG. 9B is a box plot showing the weight of tumours extracted from mice injected with mutant or wild-type BAP1-expressing cells after treatment with rTRAIL. […] FIG. 9C is a graph showing that TRAIL treatment reduces the tumour burden (measured by bioluminescence) of mutated BAP1 xenografts when compared to TRAIL treated wild-type BAP1 xenografts or untreated BAP1 mutated and BAP1 wild-type xenografts.
Groups of 8 week old NOD.CB17-Prkdcscid/NcrCrl (NOD SCID) mice (Charles River) were injected on each flank with 1 million cells of luciferase transduced mesothelioma cell lines (H226 BAP and H226 C91A) in a 1:1 mixture of matrigel and media. When tumours were established, as assessed by bioluminescent imaging (IVIS), at 14 days following injection of tumour cells, treatment was began with either vehicle or isoleucine zipper TRAIL (izTRAIL). Either vehicle or izTRAIL were given intraperitoneally once daily at a dose of 600 mcg for the duration of the experiment. Tumour size was assessed at days 0, 13, 19, 26 and 41 using bioluminescent imaging (IVIS). Mice were culled at 42 days and tumours removed and weighed. Six mice per group were treated. Researchers were not blinded in these experiments.

From patent US11789012B2, “Cell death biomarker” (UCL Business PLC, priority 2016, dated 2023) come the findings set out here.

B1: rTRAIL: recombinant protein that activates the TRAIL pathway by binding to TRAIL-R1 (DR 4) and TRAIL-R2 (DR 5) (protein, UniProt P50591 1-281, looked up)
Tumor necrosis factor ligand …: MAMMEVQGGPSLGQTCVLIVIFTVLLQSLCVAVTYVYFTNELKQMQDKYSKSGIACFLKEDDSYWDPNDEESMNSPCWQVKWQLRQLVRKMILRTSEETISTVQEKQQNISPLVRERGPQRVAAHITGTRGRSNTLSSPNSKNEKALGRKINSWESSRSGHSFLSNLHLRNGELVIHEKGFYYIYSQTYFRFQEEIKENTKNDKQMVQYIYKYTSYPDPILLMKSARNSCWSKDAEYGLYSIYQGGIFELKENDRIFVSVTNEHLIDMDHEASFFGAFLVG
On to B1, for which the rTRAIL response entry with H226 was “Sensitive”; with H2731, “Sensitive”; in the assay with H2804 it was “Sensitive”; in the assay on NCI-H226, “Sensitive**”; in the assay on H2369 it was “Resistant”; in the assay with H2591, “Resistant”. In addition, the rTRAIL response result in the assay with H2810, in the assay with H2818 and in the assay with H2869 was “Resistant” throughout. Also, in [1], the “effect on cell viability” value was “no significant effect on cell viability”. Also, the “sensitivity of BAP1 mutant cells compared with wild-type counterparts” value in the assay with mesothelioma cell lines was “significantly more sensitive”. Also, the “response to rTRAIL (viability)” value in the assay with RT4 was “sensitivity”. Besides, the “response to TRAIL (viability)” value in the assay on RCC10RGB and in the assay on SW1710 was “resistant” throughout. Further, in the assay on MDA MB-231, the “sensitivity to rTRAIL after knockdown of BAP1” value is on record as “increases sensitivity”. In assay [2] (mutated BAP1 tumours vs wild-type BAP1 tumours with TRAIL or vehicle-treated tumours, intraperitoneally once daily 600 mcg), the “tumour weight at end of experiment” value is listed as “significantly less”. Further, the “tumour burden (bioluminescence)” value in [2] (mutated BAP1 xenografts vs wild-type with TRAIL or vehicle-treated xenografts, tracked over 4 weeks) is given as “significantly less”.
